In experiment [1] the target is recombinant PI4KIIα (lab-made) (human) (UniProt Q9BTU6). Nature of the experiment: MST; fluorescently labelled PI4KIIα (5 nM) constant, unlabelled ligand protein titrated; Tris-based MST buffer; Monolith NT.115 pico; no PI.
For experiment [2] the target is unchanged. Kind of experiment: MST; fluorescently labelled PI4KIIα (5 nM) mixed with 1 μM PI (micelles) before the ligand protein, unlabelled ligand titrated; Tris-based MST buffer; Monolith NT.115 pico.

Our source for the Kd values is paper PMC13260207.

Chain of UniProt Q9BTU6 (Q9BTU6 whole entry): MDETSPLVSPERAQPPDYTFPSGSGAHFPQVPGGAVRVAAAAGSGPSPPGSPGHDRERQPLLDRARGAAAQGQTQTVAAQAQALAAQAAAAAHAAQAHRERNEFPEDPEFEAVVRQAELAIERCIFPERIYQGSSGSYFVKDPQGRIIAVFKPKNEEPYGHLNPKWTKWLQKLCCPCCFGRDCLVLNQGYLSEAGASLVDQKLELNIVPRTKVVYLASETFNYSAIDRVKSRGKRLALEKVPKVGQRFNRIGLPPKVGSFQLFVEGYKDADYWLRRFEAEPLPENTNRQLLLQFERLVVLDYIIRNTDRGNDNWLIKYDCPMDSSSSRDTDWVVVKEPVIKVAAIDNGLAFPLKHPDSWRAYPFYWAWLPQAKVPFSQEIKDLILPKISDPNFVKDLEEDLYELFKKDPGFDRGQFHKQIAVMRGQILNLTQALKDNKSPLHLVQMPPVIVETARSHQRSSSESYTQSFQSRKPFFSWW

On to “recombinant PITPα (#ab101666, Abcam) (from UniProt Q00169 1-270) (natural protein)”, for which the Kd in experiment [1] was 189 nM. As to “recombinant PITPβ (#LS-C794864, LSBio) (from UniProt P48739 1-271) (natural protein)”, the Kd in experiment [1] came out at 263 nM; in experiment [2], 113 nM.
